B1: AbP (antibody, human IgG1, V domains shown)
VH: QVQLQESGPGLVKPSETLSLTCAVSGYSISSGYYWGWIRQPPGKGLEWIGSISHTGNTYYNPPLKSRVTISVDTSKNQFSLKLSSVTAADTAVYYCARGGGISRPEYWGQGTLVTVSS
VL: SSELTQDPAVSVALGQTVRITCQGDSLRTYYASWYQQKPGQAPVLVIYGKHKRPSGIPDRFSGSSSGNTASLTITGAQAEDEADYYCVSRSAKGNPHVLFGGGTQLTVL
notes: CDR3 graft, residue limits derived as for m29; also called VHP/VL20; VHPTM/VL20
B2: parental 18A5 antibody (antibody, V domains shown)
VH: B1 VH with P14T, Q110K
VL: SSELTQDPPVSVALGQTVTLTCQGDSLRTYYASWYQQKSGQAPILLLYGKHKRPSGIPDRFSGSTSGDTASLTITGAQAEDEADYYCNSRDSSGNPHVLFGGGTQLTVL
notes: also called 18A5 IgG
B3: AbO (antibody, human IgG1, V domains shown)
VH: B1 VH
VL: B1 VL with S89T
notes: CDR3 graft, residue limits derived as for m29; also called VHP/VL16; VHPTM/VL16
B4: AbQ (antibody, human IgG1, V domains shown)
VH: B1 VH with G99F, G100M, I102F, S103G
VL: B1 VL with S89A, A92V, K93V
notes: CDR3 graft, residue limits derived as for m29; also called VH3/VL2; VH3DM/VL2
B5: AbR (antibody, human IgG1, V domains shown)
VH: B1 VH with G99F, G100M, I102F, S103G
VL: B1 VL with S89T, A92V
notes: CDR3 graft, residue limits derived as for m29; also called VH3/VL18; VH3DM/VL18
B6: AbT (antibody, human IgG1, V domains shown)
VH: B1 VH
VL: B1 VL with S89A, A92N
notes: CDR3 graft, residue limits derived as for m29; also called VHP/VL9; VHPTM/VL9
B7: AbS (antibody, V domains shown)
VH: B1 VH
VL: B1 VL with V88M, A92I, K93W
notes: CDR3 graft, residue limits derived as for m29; also called VHP/VL6; VHPTM/VL6
B8: AbU (antibody, human IgG1, V domains shown)
VH: B1 VH
VL: B1 VL with V88T, S89T, A92N
notes: CDR3 graft, residue limits derived as for m29; also called VHP/VL25; VHPTM/VL25

The results in this text go back to patent publication US20120276102A1 (Pfizer, published 2012).

Where a chain is given by its changes, count along the chain named. A value given as a limit tells only on which side of the number the result lay.

In one test the target is T1, human IL-21R expressed on cells (human, UniProt Q9HBE5 20-538). In words: cell-based or functional assay.
T1 sequence (Q9HBE5 20-538 limits assumed): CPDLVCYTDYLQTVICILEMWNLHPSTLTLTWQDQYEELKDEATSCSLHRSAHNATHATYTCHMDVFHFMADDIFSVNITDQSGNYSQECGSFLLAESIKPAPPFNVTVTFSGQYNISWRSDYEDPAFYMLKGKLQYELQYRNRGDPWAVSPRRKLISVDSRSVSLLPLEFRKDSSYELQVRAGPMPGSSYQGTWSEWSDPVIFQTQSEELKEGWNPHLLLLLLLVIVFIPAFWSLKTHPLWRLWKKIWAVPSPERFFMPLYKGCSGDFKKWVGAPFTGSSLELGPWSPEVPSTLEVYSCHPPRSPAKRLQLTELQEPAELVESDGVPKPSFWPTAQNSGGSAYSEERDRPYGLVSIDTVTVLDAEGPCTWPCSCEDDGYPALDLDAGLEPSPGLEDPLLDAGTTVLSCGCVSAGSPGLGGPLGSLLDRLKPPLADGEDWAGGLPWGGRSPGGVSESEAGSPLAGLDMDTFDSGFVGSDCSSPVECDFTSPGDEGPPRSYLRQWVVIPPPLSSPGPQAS
On to B1, for which the “Neutralization of human primary T cell Proliferation IC50” value was found to be 0.02 nM.

For B2, the “Neutralization of human primary T cell Proliferation IC50” value turned out to be 1.42 nM.

Turning to B3, the “Neutralization of human primary T cell Proliferation IC50” value stood at 0.06 nM.

As to B4, the “Neutralization of human primary T cell Proliferation IC50” value turned out to be 0.08 nM.

In the case of B5, the “Neutralization of human primary T cell Proliferation IC50” value was 0.04 nM.

Take B6: the “Neutralization of human primary T cell Proliferation IC50” value came to 0.03 nM.

As to B7, the “Neutralization of human primary T cell Proliferation IC50” value came out at 0.06 nM.

Consider B8, for which the “Neutralization of human primary T cell Proliferation IC50” value turned out to be 0.03 nM.

The next test addresses T2, cynomolgus monkey IL-21R expressed on cells (cynomolgus monkey, UniProt G7Q0S8 41-559).
T2 construct: whole, on cells
In words: cell-based ELISA on CHO cells transiently expressing cynomolgus monkey IL-21R; HRP anti-human IgG, A450. In general terms: An ELISA detects its analyte on a solid surface through an enzyme-linked reagent.
Take B1: the EC50 (read off the curve) (as a rule, the concentration that produces a half-maximal response) is approximately 0.7 nM.

As for B2, the “EC50 (read off the curve)” value is approximately 0.4 nM.

As for B3, the “EC50 (read off the curve)” value is approximately 0.5 nM.

For the molecule B4, the “EC50 (read off the curve)” value is approximately 0.7 nM.

Take B5: the “EC50 (read off the curve)” value was approximately 1 nM.

As for B6, the “EC50 (read off the curve)” value was approximately 0.6 nM.

In the case of B7, the “EC50 (read off the curve)” value is approximately 0.5 nM.

In the case of B8, the “EC50 (read off the curve)” value is approximately 0.7 nM.

The target in another test is rat IL-21R expressed on cells (rat). Description: cell-based or functional assay.
For B7, the “IC50, rat T cell proliferation, experiment 1” value was 36 nM and the “IC50, rat T cell proliferation, experiment 2” value stood at 27.1 nM.

In the case of B8, the “IC50, rat T cell proliferation, experiment 1” value came out at 173 nM and the “IC50, rat T cell proliferation, experiment 2” value was 105 nM.

For the next test, the target named is T3, murine IL-21R expressed on cells (murine, UniProt Q9JHX3 20-529). Description: cell-based or functional assay.
T3 sequence (Q9JHX3 20-529 limits assumed): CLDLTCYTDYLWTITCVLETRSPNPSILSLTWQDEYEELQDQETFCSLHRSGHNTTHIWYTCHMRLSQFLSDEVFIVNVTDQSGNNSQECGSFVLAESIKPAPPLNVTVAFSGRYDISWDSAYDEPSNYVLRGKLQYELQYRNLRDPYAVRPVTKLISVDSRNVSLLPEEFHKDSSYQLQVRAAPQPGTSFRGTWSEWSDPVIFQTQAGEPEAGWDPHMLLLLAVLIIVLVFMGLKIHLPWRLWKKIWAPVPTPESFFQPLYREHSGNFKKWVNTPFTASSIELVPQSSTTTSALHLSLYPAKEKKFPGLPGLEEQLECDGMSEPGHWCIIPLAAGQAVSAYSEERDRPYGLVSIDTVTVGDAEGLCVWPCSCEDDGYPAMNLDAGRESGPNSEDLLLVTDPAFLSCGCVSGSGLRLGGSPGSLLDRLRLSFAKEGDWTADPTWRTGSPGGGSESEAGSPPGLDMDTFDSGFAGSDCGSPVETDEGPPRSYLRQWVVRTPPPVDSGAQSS
Consider B2, for which the “Murine IL-21R-BaF3 Neutralization IC50” value was 177 nM.

Regarding B5, the “Murine IL-21R-BaF3 Neutralization IC50” value worked out at 0.34 nM.

Regarding B6, the “Murine IL-21R-BaF3 Neutralization IC50” value came to 0.05 nM.

Take B7: the “Murine IL-21R-BaF3 Neutralization IC50” value is 0.04 nM.

The next test concerns the target T1, human IL-21R expressed on cells. Description: cell-based or functional assay. This is another data set of the same source.
Turning to B2, the “Human IL-21R-BaF3 Neutralization IC50” value was 1.71 nM and the “Human IL-21R-TF1 Neutralization IC50” value came out at 14 nM.

With B5, the “Human IL-21R-BaF3 Neutralization IC50” value was 0.56 nM and the “Human IL-21R-TF1 Neutralization IC50” value was 1.63 nM.

Take B6: the “Human IL-21R-BaF3 Neutralization IC50” value came out at 0.3 nM and the “Human IL-21R-TF1 Neutralization IC50” value was determined as 2.32 nM.

For B7, the “Human IL-21R-BaF3 Neutralization IC50” value is 0.68 nM and the “Human IL-21R-TF1 Neutralization IC50” value is 6.67 nM.

The next test concerns the target T4, human gamma (γ) common chain expressed on CHO cells (human, UniProt P31785 23-369).
T4 construct: whole, on cells; Control protein; also called human IL-2R-γ common subunit; human γ-common
T4 sequence (looked up): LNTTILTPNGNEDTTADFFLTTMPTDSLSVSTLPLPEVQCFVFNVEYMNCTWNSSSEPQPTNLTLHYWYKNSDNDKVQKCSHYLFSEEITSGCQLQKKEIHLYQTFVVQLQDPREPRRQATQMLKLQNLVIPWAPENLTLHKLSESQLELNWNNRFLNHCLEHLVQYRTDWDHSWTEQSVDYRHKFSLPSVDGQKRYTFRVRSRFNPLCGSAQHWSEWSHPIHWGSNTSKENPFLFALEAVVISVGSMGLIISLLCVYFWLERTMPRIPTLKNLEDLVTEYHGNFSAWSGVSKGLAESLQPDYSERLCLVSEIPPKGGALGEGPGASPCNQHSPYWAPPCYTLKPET
Description: cell-based ELISA on CHO cells transiently expressing human gamma common chain; HRP anti-human IgG, A450. The method, then:
(§1) FIG. 6(a-l) depicts the binding of 21 anti-IL-21R IgGs to CHO cells transiently expressing human IL-21R (FIGS. 6a-c), rat IL-21R (FIGS. 6d-f), cynomolgus monkey IL-21R (FIGS. 6g-i), and human gamma common chain (FIGS. 6j-1). CHO cells were transiently transfected with IL-21R or the control gamma common chain, and binding was detected with HRP-conjugated anti-human IgG in a cell-based ELISA.
(§2) A subset of binding proteins was tested for binding to rat, cynomolgus monkey, human IL-21R, or human IL-2R-γ common subunit expressed transiently on the surfaces of CHO-PA-Dukx cells. Cells were transfected 48 hr prior to the assay. On the day of the assay, cells were washed gently 5× in PBS containing 0.9 mM CaCl₂ and 0.45 mM MgCl₂ (PBS/CaMg) on an automated plate washer (Titertek, Huntsville, Ala.), and blocked for 1 hr at RT in PBS/CaMg/5% nonfat dry milk. Conditioned media from transiently expressed anti-IL-21R IgGs were serially diluted in blocking buffer and added to the cells in the blocked plates for 1 hr at RT. Cells were washed 5× with PBS/CaMg and then incubated with horseradish peroxidase-conjugated anti-human IgG for 1 hr at RT. Cells were then washed 10× in PBS/CaMg and all of the wash buffer was removed. Cells were incubated with 100 μl TMB until the color reaction reached saturation, stopped with 100 μl of 0.18 M H₂SO₄, and read at A450 on a Perkin Elmer ENVISION™ plate reader.
Take B1: the binding result was “no binding (tested: 40 nM)”.

As for B2, the binding result is reported as “no binding (tested: 13 nM)”.

As to B3, the binding result is “no binding (tested: 40 nM)”.

B4: the binding result was “no binding (tested: 40 nM)”.

As for B5, the binding result is reported as “no binding (tested: 40 nM)”.

B6: the binding result is “no binding (tested: 40 nM)”.

As to B7, the binding result is recorded as “no binding (tested: 40 nM)”.

Regarding B8, the binding result is on record as “no binding (tested: 40 nM)”.

Another test concerns the target T1, human IL-21R expressed on cells. In words: cell-based ELISA on CHO cells transiently expressing human IL-21R; HRP anti-human IgG, A450.
Take B1: the “EC50 (read off the curve)” value is approximately 1 nM.

For B2, the “EC50 (read off the curve)” value was approximately 0.6 nM.

With B3, the “EC50 (read off the curve)” value was approximately 0.4 nM.

Take B4: the “EC50 (read off the curve)” value is approximately 0.9 nM.

On to B5, for which the “EC50 (read off the curve)” value was approximately 0.5 nM.

Take B6: the “EC50 (read off the curve)” value is approximately 1 nM.

For B8, the “EC50 (read off the curve)” value was approximately 2 nM.

The next test deals with T5, rat IL-21R expressed on cells (rat).
T5 construct: whole, on cells
Description: cell-based ELISA on CHO cells transiently expressing rat IL-21R; HRP anti-human IgG, A450. On the procedure: as §1, §2
On to B3, for which the “EC50 (read off the curve)” value is approximately 0.4 nM.

Take B4: the 50% effective concentration (EC50 (read off the curve)) is approximately 0.8 nM.

In the case of B5, the “EC50 (read off the curve)” value was approximately 0.7 nM.

In the case of B6, the “EC50 (read off the curve)” value is approximately 1 nM.

As to B7, the “EC50 (read off the curve)” value is approximately 1 nM.

Another test deals with T3, murine IL-21R expressed on cells. In words: cell-based or functional assay. The source holds these as a separate data set.
Take B2: the “Neutralization of murine primary T cell Proliferation IC50” value was more than 85 nM.

In the case of B3, the “Neutralization of murine primary T cell Proliferation IC50” value was found to be 4.92 nM.

B4: the “Neutralization of murine primary T cell Proliferation IC50” value is 0.85 nM.

Turning to B5, the “Neutralization of murine primary T cell Proliferation IC50” value was determined as 0.13 nM.

With B6, the “Neutralization of murine primary T cell Proliferation IC50” value is 0.61 nM.

On to B7, for which the “Neutralization of murine primary T cell Proliferation IC50” value was 0.02 nM.

With B8, the “Neutralization of murine primary T cell Proliferation IC50” value worked out at 1.79 nM.

The target of a further test is T6, human complement component C1q (human, UniProt P02745 23-245; P02746 28-253; P02747 29-245).
T6 construct: Native C1q in diluted human serum
T6 sequence (P02745 23-245, chain 1 of 3): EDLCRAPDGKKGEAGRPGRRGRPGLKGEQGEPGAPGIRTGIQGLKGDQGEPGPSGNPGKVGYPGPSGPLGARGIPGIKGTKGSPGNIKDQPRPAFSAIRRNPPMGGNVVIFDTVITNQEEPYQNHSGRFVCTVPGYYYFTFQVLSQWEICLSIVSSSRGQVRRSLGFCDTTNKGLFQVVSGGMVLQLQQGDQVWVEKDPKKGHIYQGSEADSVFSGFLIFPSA
T6 sequence (P02746 28-253, chain 2 of 3): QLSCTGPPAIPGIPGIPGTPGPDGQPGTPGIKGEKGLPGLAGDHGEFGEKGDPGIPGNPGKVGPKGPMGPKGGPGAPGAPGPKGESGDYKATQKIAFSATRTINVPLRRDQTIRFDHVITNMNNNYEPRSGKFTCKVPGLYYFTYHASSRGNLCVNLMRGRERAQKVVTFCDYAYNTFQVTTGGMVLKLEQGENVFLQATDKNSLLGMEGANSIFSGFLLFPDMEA
T6 sequence (P02747 29-245, chain 3 of 3): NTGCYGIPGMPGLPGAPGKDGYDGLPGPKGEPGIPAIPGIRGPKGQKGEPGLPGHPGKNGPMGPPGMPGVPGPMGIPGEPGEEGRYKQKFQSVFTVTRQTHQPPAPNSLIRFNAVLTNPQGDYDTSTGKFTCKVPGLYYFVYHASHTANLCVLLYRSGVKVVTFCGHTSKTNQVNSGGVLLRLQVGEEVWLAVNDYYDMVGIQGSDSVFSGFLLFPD
In words: C1q ELISA: antibody coated on the plate, human serum 1:50, chicken anti-human C1q and HRP anti-chicken IgY. The method, then: In order to determine whether cell-surface binding by anti-IL-21R antibodies is likely to lead to complement-dependent cytotoxicity (CDC), the antibodies were tested for their ability to bind to the complement component C1q in an ELISA. […] Diluted antibodies (100 μl) were coated onto a COSTAR® high-binding ELISA plate (Corning Life Sciences, Lowell, Mass.) overnight at 4° C. Plates were washed 3× with PBS/Tween-20 and blocked with 200 μl of blocking buffer (0.1 M NaPO₄, 0.1 M NaCl, 0.1% gelatin, 0.01% Tween) for 1 hr at RT. Human serum previously determined to contain C1q (Quidel, San Diego, Calif.) was diluted 1:50 in PBS. After 1 hr of blocking, plates were washed and 100 μl of diluted serum was added to each well and incubated for 2 hr at RT on a shaker. Following three washes, 100 μl A of 0.1 μg/ml chicken polyclonal anti-human C1q antibody (AbCam, Cambridge, Mass.) was added to each well and incubated for 1 hr at RT. Plates were again washed and incubated with 100 μA of a rabbit polyclonal antibody to chicken Ig-Y—HRP diluted 1:4000 (AbCam) for 1 hr at RT. Plates were washed and developed with TMB for 5 min, followed by 50 μA of 1 M H₂SO₄ to stop the reaction, and then read at 450 nm.
Consider B1, for which the binding result is given as “no binding”.

In the case of B3, the binding result is “no binding”.

Consider B7, for which the binding result is reported as “no binding”.

On to B8, for which the binding result was “no binding”.
